Test results taken from PMC2529400.

Target: KSHV viral G protein-coupled receptor, Flag-tagged (vGPCR-Flag) (Kaposi's sarcoma-associated herpesvirus (human herpesvirus 8)) (UniProt Q98146)
UniProt Q98146, sequence (Q98146 whole entry): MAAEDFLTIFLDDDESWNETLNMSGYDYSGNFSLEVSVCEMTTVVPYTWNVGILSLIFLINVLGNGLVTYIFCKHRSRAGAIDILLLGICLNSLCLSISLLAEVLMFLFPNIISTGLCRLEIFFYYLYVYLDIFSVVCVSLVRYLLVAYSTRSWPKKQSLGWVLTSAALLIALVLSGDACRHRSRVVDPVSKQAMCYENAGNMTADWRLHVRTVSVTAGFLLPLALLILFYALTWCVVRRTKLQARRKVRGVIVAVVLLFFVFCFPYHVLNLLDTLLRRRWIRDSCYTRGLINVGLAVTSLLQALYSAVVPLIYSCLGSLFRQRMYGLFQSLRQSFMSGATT

Which results are given for “KSHV K7 small membrane protein, V5-tagged (K7-V5), wild type (natural protein)”?
AP-1 luciferase reporter activation by vGPCR in 293T cells with K7 co-expressed (about 4.5 fold without K7): 2 fold; NF-AT luciferase reporter activation by vGPCR in 293T cells with K7 co-expressed (about 25 fold without K7): 8 fold; NF-κB luciferase reporter activation by vGPCR in 293T cells with K7 co-expressed (about 4 fold without K7): 2 fold
